Experiment [1] addresses T1, recombinant human ORF1p (LINE-1 open reading frame 1 protein, L1RP) (human, UniProt Q9UN81 1-338).
T1 construct: Expressed in E. coli, tag cleaved, monodisperse homotrimer; Immobilized on the CM5 chip in SPR; also called trimeric ORF1p
T1 sequence: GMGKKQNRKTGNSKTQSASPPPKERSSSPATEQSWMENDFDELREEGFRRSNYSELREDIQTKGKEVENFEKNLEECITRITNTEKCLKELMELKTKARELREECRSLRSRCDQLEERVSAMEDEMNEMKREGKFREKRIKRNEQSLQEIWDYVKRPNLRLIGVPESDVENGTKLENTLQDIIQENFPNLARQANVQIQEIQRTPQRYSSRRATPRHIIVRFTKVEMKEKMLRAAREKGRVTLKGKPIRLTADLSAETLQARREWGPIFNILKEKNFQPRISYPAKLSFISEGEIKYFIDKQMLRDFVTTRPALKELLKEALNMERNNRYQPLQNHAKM
The experiment can be described thus: Simoa sandwich, recombinant ORF1p at 40 pg/mL in diluent buffer, signal/background heat map; capture on the x axis, detector on the y axis. On the procedure:
ORF1p Simoa assays. Simoa assays were performed on an HD-X Analyzer (Quanterix Corp.), with all assay reagents and consumables loaded onto the instrument according to the manufacturer's instructions. 250,000 capture beads and 250,000 helper (non-conjugated) beads were used in each Simoa assay. A three-step assay configuration was used for the first- and second-generation assays, consisting of a 15-minute target capture step (incubation of capture beads with 100 μL sample), 5-minute incubation with detector reagent (0.3 μg/mL for both first- and second-generation assays), and 5-minute incubation with streptavidin-β-galactosidase (150 pM for first-generation assay; 300 pM for second-generation assays). The beads were washed with System Wash Buffer 1 (Quanterix Corp.) after each assay step. Upon the final wash cycle, the beads were loaded together with the fluorogenic enzyme substrate resorufin β-D-galactopyranoside into a 216,000-microwell array, which was subsequently sealed with oil. Automated imaging and counting of “on” and “off” wells and calculation of average enzyme per bead (AEB) were performed by the instrument. Calibration curves were fit using a 4PL fit with a 1/y² weighting factor, and the limit of detection (LOD) was determined as three standard deviations above the blank.
Signal/background was also determined for a number of the pairs by Simoa using recombinant ORF1p protein in diluent buffer; the results are shown in FIG. 15. When the rabbit monoclonal antibodies were used as capture and detector, the background was high. The best combinations were the rabbit monoclonal antibodies as capture/Ab6 detector; Nb5-5 capture/rabbit monoclonal antibodies detector; and 4H1 capture/rabbit monoclonal antibody detector pairs.

In experiment [2] the target is T1, recombinant human ORF1p (LINE-1 open …). The experiment can be described thus: Simoa sandwich calibration curves, panels titled capture/detector; AEB against recombinant ORF1p (axis 0.001-1000 pg/mL, log-log); dotted line = limit of detection.
For experiment [3] the target is unchanged. Kind of experiment: screen of cloned llama nanobody candidates for binding to ORF1p.
Experiment [4] shares this target. The experiment can be described thus: ELISA screen of conditioned medium, then modified Simoa with Nb-5 or 4H1 beads and ORF1p. From the text: GenScript's MonoRab™ immunization and B cell cloning platform was used with purified, recombinant human ORF1p trimers. The 50 best-performing clones, determined by ELISA screening of the conditioned cell medium at multiple dilutions, were selected and used in a modified Simoa assay with two different detector beads (Nb-5, which is the C5 nanobody clone described above, or 4H1 (Sigma-Aldrich)). The ten best clones (62H12, 64C6, 33A8, 61A11, 36D12, 34H7, 50E9, 34C5, 55A6, and 42D10) all yielded up to 5-fold higher signal-to-noise than our best existing reagent, Ab6, (FIG. 13A).

B1: 62H12 (antibody, V domains shown)
VH: QSVKESGGRLVTPGTPLTLICTVSGFSLSRYAVGWVRQAPGKGLEWIGYIWSGGYTDYANWAKGRFTISKTSTTVDLKITSPTTEDTATYFCAREGDSDDYIYLNLWGPGTLVTVSS
VL: ALVMTQTPSSVSAAVGGTVTINCQASESISSYLAWYQQKSGQPPKLLIYRASTLASGVPSRFKGSGSGTEFTLTIGDLECADAATYYCQQGYTSFNVDKAFGGGTEVVVK
notes: Rabbit monoclonal antibody (GenScript MonoRab); also called 62H12-1; 62H2
For the molecule B1, the binding result in experiment [1] is “binds”.

B2: 61A11 (antibody, V domains shown)
VH: QSVEESGGRLVTPGTPLTLTCTVSGIDLSSYVMGWVRQAPGKGLDWIGMIDTHDDTYFAPWARGRFTISRTSSTTVDLKVASTTTEDTATYFCAGNLALWGRGTLVTVSS
VL: AQVLTQTPSPVSVAVGGTVTISCQSSQSVSSDNWLGWYQQKPGQPPKLLIYRASKLASGVSSRFKGSGSGTQFILTISDLECDDAATYYCAGGYSGSIIAFGGGTEVVVK
notes: Rabbit monoclonal antibody; also called 61A11-1
In the case of B2, in experiment [1], the binding result is listed as “binds”.

B3: MT1037 (bispecific antibody)
nanobody concatemer: QVQLVESGGDLVQAGGSLRLSCAVSGGTSSNYGMGWFRQAPGKEREFVSSISWSGSRTLYSDSVKGRFTISRDNAKNTVDLQMNSLKPEDTAVYYCTAVREYRDYPQRDNFDYWGQGTQVTVSGGGGSGGGGSGGGGSGGGGSDAAARDAAARDAAARGGGGSGGGGSGGGGSGGGGSGSMAQVHLVESGGKLVQAGESLKLSCEVSGRTFSISGAGWFRQAPGKEREFVAAITWTGGYPYYDASVKGRFTISREDPDNTVYLSMNSLKPEDTAVYYCATRRAGDLDFSYAQQGRYDNWGQGTQVTVSCGSGRCGSGRCGSGRCGSGRC
modifications: biotinylated on the C-terminal cysteine residues when used as detector
notes: also called Nb5-Nb9-7Cys anti-ORF1 Nb dimer 12 (long linker v2); 5-9-cys(long2)
As to B3, the binding result in experiment [2] is “binds”.

B4: MT1036 (other)
nanobody concatemer: DVQLVESGGGLVQAGGSLRLSCAASGRTDDIYTMGWFRQGPGKEREFVAVISWSITRRSSITHYADSVKGRFTISGENAENTVYLQMNTLKPEDTAVYYCAAKTGYSGSMSSYQDYDSWGQGTQVTVSGGGGSGGGGSGGGGSGGGGSDAAARDAAARDAAARGGGGSGGGGSGGGGSGGGGSGSMAQVHLVESGGKLVQAGESLKLSCEVSGRTFSISGAGWFRQAPGKEREFVAAITWTGGYPYYDASVKGRFTISREDPDNTVYLSMNSLKPEDTAVYYCATRRAGDLDFSYAQQGRYDNWGQGTQVTVSCGSGRCGSGRCGSGRCGSGRC
modifications: biotinylated on the C-terminal cysteine residues when used as detector
notes: also called Nb2-Nb9-7Cys anti-ORF1 Nb dimer 11 (long linker v2); 2-9-cys(long2)
As to B4, the binding result in experiment [2] is on record as “binds”.

B5: anti-ORF1 Nanobody 1 (Nb1) (VHH)
VHH: DVQLVESGGGLVQAGESLRLSCAASGRTLSSLNMAWFRQVPGKERDFVSLISRSGSTDYVHSVRGRFTISRDNAKNTVYLEMNSLKPEDTAVYYCAADDNYNGRYPFRDEYEYWGQGTQVTVSH
notes: Llama nanobody
For the molecule B5, the binding result in experiment [3] is “binds”.

B6: 50E9 (antibody, V domains shown)
VH: QSVEESGGRLVTPGTPLTLTCTVSGFSLSRHYMSWVRQAPGKGLEWIGIIYDDDNRDHASWAKGRFTISRTSTTVDLKITSPTTEDTATYFCARVYASYGYALNLWGQGTLVIVSS
VL: ALVMTQTPPSVSAAVGGTVTINCQASESITNWLAWYQQKPGQPPKLLIYDASKLASGVSSRFSGSGSGTQFTLTISRVQCDDAATYYCQQGYTWNNIDNVFGGGTEVVVK
notes: Rabbit monoclonal antibody; also called 50E9-2
For B6, the binding result in experiment [4] is recorded as “binds”.

B7: MT1038 (other)
nanobody concatemer: QVHLVESGGKLVQAGESLKLSCEVSGRTFSISGAGWFRQAPGKEREFVAAITWTGGYPYYDASVKGRFTISREDPDNTVYLSMNSLKPEDTAVYYCATRRAGDLDFSYAQQGRYDNWGQGTQVTVSGGGGSGGGGSGGGGSGGGGSDAAARDAAARDAAARGGGGSGGGGSGGGGSGGGGSGSMAQVHLVESGGKLVQAGESLKLSCEVSGRTFSISGAGWFRQAPGKEREFVAAITWTGGYPYYDASVKGRFTISREDPDNTVYLSMNSLKPEDTAVYYCATRRAGDLDFSYAQQGRYDNWGQGTQVTVSCGSGRCGSGRCGSGRCGSGRC
modifications: biotinylated on the C-terminal cysteine residues when used as detector
notes: also called Nb9-Nb9-7Cys anti-ORF1 Nb dimer 13 (long linker v2); 9-9-cys(long2)
Take B7: the binding result in experiment [2] was “binds”.

B8: MT1035 (bispecific antibody)
nanobody concatemer: QVQLVESGGDLVQAGGSLRLSCAVSGGTSSNYGMGWFRQAPGKEREFVSSISWSGSRTLYSDSVKGRFTISRDNAKNTVDLQMNSLKPEDTAVYYCTAVREYRDYPQRDNFDYWGQGTQVTVSGGGGSGGGGSGGGGSGGGGSDAAARDAAARDAAARGGGGSGGGGSGGGGSGGGGSMAQVQLVESGGDLVQAGGSLRLSCAVSGGTSSNYGMGWFRQAPGKEREFVSSISWSGSRTLYSDSVKGRFTISRDNAKNTVDLQMNSLKPEDTAVYYCTAVREYRDYPQRDNFDYWGQGTQVTVSCGSGRCGSGRCGSGRCGSGRC
modifications: biotinylated on the C-terminal cysteine residues when used as detector
notes: also called Nb5-Nb5-7Cys anti-ORF1 Nb dimer 10 (long linker v2); 5-5-cys(long2)
Take B8: the binding result in experiment [2] is recorded as “binds”.

B9: MT1032 (bispecific antibody)
nanobody concatemer: QVQLVESGGDLVQAGGSLRLSCAVSGGTSSNYGMGWFRQAPGKEREFVSSISWSGSRTLYSDSVKGRFTISRDNAKNTVDLQMNSLKPEDTAVYYCTAVREYRDYPQRDNFDYWGQGTQVTVSGGGGSGGGGSGGGGSGGGGSMAQVQLVESGGDLVQAGGSLRLSCAVSGGTSSNYGMGWFRQAPGKEREFVSSISWSGSRTLYSDSVKGRFTISRDNAKNTVDLQMNSLKPEDTAVYYCTAVREYRDYPQRDNFDYWGQGTQVTVSCGSGRCGSGRCGSGRCGSGRC
modifications: biotinylated on the C-terminal cysteine residues when used as detector
notes: also called Nb5-Nb5-7Cys anti-ORF1 Nb dimer 7 (short linker); Nb 5-5-cys (short)
Take B9: the binding result in experiment [2] is reported as “binds”.

B10: 42D10 (antibody, V domains shown)
VH: QSVEESGGRLVTPGTPLTLTCTVSGFSLSSYAMTWVRQAPGKGLEWIGYIYAGGIADYANWAKGRFTISKTSTTVDLTITSPTTEDTATYFCAREGDSDDYVYLSLWGPGTLVTVSS
VL: ALVMTQTPSSVSAAVGGTVTINCQASQSIVGYLAWYQQKPGQPPKLLIYRASTLASGVSSRFKGSGSGTEFTLTISGVQCADAATYYCQQGYINSNIDNTFGGGTEVVVK
notes: Rabbit monoclonal antibody; also called 42D10-1
Consider B10, for which the binding result in experiment [1] is given as “binds”.

The values above are taken from US20260176701A1 (BRIGHAM AND WOMEN S HOSPITAL, published 2026).
